Values of other authors in PMC7017177.

Target: CTLA-4 (Homo sapiens) (UniProt P16410)
Chain of UniProt P16410 (P16410 36-161): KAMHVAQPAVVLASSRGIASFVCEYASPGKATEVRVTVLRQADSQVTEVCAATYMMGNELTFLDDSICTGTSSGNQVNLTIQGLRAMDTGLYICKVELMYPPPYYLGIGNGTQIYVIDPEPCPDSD

## Tremelimumab
  Kd: 280 pM
